No end group written: not given here.
Assays:
[1] = target: T1, HpParAD41A, ATP hydrolysis-deficient mutant of Helicobacter pylori ParA (Helicobacter pylori, UniProt O25759, D41A); test: MST; 5-FAM-Ahx-labeled peptide (200 nM) mixed 1:1 with 16 serial dilutions of unlabeled HpParA or HpParAD41A (300 μM); 20 mM Tris-HCl pH 8.0, 5% glycerol, 200 mM NaCl, 50 mM imidazole, 5 mM MgCl2, 0.05% Tween20; 25°C; the results speak of ParA-DNA complexes; conditions: both partners purified
T1 construct: also called HpSojD41A; source: recombinant, grown in Luria-Bertani medium, induced with IPTG, purified as HpParA (Ni-NTA, SEC)
T1 sequence: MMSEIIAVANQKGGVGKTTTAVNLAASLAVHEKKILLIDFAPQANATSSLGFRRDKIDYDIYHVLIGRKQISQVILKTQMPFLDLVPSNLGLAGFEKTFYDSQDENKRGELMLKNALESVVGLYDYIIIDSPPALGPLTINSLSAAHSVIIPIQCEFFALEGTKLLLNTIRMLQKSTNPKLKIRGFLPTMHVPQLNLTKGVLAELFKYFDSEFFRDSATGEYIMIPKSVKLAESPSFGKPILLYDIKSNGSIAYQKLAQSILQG

Ct-HpParB = target: T2, Ct-HpParB (Helicobacter pylori, UniProt O25758 1-240); test: EMSA; no CTP; FP: 20 mM Tris-HCl pH 8.0, 175 mM NaCl, 5 mM MgCl2, 10% glycerol, 1 mM ATP or CTP, 5 nM DNA, room temperature; EMSA: 20 mM Tris-HCl pH 8.0, 50 mM NaCl, 11 mM imidazole, 5 mM MgCl2, 10% glycerol, +/- 2 mM CTP, 37 C, gel at 4 C; conditions: protein: recombinant; chain copies: 2; label: none (GelRed stain); blunt
T2 sequence: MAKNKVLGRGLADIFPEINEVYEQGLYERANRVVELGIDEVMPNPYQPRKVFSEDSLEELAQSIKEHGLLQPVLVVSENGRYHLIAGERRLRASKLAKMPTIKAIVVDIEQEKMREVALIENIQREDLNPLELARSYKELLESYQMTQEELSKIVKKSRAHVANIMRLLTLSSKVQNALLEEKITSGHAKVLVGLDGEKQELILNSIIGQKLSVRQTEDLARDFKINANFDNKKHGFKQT

HpParB (HpSpo0J) [2] = target: T3, HpParB (HpSpo0J) (Helicobacter pylori, UniProt O25758 1-290); test: fluorescence polarization; no CTP, 5 mM Mg2+; FP: 20 mM Tris-HCl pH 8.0, 175 mM NaCl, 5 mM MgCl2, 10% glycerol, 1 mM ATP or CTP, 5 nM DNA, room temperature; EMSA: 20 mM Tris-HCl pH 8.0, 50 mM NaCl, 11 mM imidazole, 5 mM MgCl2, 10% glycerol, +/- 2 mM CTP, 37 C, gel at 4 C; conditions: protein: recombinant; tags: His (Ni-NTA purified); chain copies: 2; label: 5' Cy3 (FP dye assignment inferred from EMSA); blunt
T3 sequence: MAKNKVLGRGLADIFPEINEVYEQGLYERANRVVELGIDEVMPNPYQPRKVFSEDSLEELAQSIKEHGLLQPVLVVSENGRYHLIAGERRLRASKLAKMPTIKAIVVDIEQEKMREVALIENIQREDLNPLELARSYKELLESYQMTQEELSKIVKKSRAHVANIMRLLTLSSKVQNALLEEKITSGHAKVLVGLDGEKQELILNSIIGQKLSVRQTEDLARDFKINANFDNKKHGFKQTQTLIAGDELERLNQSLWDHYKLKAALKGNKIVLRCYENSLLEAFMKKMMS

HpParB (HpSpo0J) [3] = target: T3, HpParB (HpSpo0J); test: fluorescence polarization; 1 mM CTP, 5 mM Mg2+; FP: 20 mM Tris-HCl pH 8.0, 175 mM NaCl, 5 mM MgCl2, 10% glycerol, 1 mM ATP or CTP, 5 nM DNA, room temperature; EMSA: 20 mM Tris-HCl pH 8.0, 50 mM NaCl, 11 mM imidazole, 5 mM MgCl2, 10% glycerol, +/- 2 mM CTP, 37 C, gel at 4 C; conditions: protein: recombinant, tags: His (Ni-NTA purified), chain copies: 2, blunt
HpParAD41A = HpParAD41A (Helicobacter pylori, UniProt O25759 1-264, D41A); test: fluorescence polarization; 1 mM ATP, 5 mM Mg2+; FP: 20 mM Tris-HCl pH 8.0, 175 mM NaCl, 5 mM MgCl2, 10% glycerol, 1 mM ATP or CTP, 5 nM DNA, room temperature; EMSA: 20 mM Tris-HCl pH 8.0, 50 mM NaCl, 11 mM imidazole, 5 mM MgCl2, 10% glycerol, +/- 2 mM CTP, 37 C, gel at 4 C; conditions: protein: recombinant; tags: His (Ni-NTA purified); label: 5' Cy5 in EMSA; FP label Cy3 or Cy5 not specified per DNA; blunt
HpParA (HpSoj) = target: T4, HpParA (HpSoj) (Helicobacter pylori, UniProt O25759 1-264); test: as above; conditions: protein: recombinant; tags: His (Ni-NTA purified); label: 5' Cy5 in EMSA; FP label Cy3 or Cy5 not specified per DNA; blunt
T4 sequence: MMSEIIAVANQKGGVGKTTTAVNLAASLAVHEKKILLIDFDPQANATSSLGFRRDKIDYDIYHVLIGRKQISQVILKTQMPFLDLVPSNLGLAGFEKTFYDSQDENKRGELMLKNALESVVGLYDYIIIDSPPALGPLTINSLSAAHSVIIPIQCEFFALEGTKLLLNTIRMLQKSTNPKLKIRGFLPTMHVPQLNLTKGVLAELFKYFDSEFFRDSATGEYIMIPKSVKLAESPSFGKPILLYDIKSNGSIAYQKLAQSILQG

[4] = target: T5, HpParA (HpSoj);HpParB (HpSpo0J) (Helicobacter pylori;Helicobacter pylori, UniProt O25759;O25758 1-264;1-290, |); test: EMSA; no CTP; NAC1 with Cy3-parS (N3) also in complex; FP: 20 mM Tris-HCl pH 8.0, 175 mM NaCl, 5 mM MgCl2, 10% glycerol, 1 mM ATP or CTP, 5 nM DNA, room temperature; EMSA: 20 mM Tris-HCl pH 8.0, 50 mM NaCl, 11 mM imidazole, 5 mM MgCl2, 10% glycerol, +/- 2 mM CTP, 37 C, gel at 4 C; conditions: protein: recombinant;recombinant; tags: His (Ni-NTA purified); label: 5' Cy5 in EMSA; FP label Cy3 or Cy5 not specified per DNA; blunt
T5 sequence 1: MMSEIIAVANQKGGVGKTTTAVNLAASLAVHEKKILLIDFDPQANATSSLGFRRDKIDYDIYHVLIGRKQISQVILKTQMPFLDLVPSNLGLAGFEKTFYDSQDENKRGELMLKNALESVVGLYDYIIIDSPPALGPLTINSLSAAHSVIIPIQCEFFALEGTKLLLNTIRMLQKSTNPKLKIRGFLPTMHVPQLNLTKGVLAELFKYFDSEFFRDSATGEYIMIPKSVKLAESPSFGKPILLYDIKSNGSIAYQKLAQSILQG
T5 sequence 2: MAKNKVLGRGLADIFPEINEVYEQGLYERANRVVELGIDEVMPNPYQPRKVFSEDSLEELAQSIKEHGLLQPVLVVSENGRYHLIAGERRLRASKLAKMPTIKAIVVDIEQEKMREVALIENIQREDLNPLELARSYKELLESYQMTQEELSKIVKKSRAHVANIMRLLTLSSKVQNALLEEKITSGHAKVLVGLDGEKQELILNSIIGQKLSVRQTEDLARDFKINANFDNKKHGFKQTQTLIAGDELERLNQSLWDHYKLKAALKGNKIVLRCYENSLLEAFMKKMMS

[5] = target: HpParAD41A;HpParB (HpSpo0J) (Helicobacter pylori;Helicobacter pylori, UniProt O25759;O25758 1-264;1-290, D41A|); test: EMSA; no CTP; NAC3 with Cy3-parS (N3) also in complex; FP: 20 mM Tris-HCl pH 8.0, 175 mM NaCl, 5 mM MgCl2, 10% glycerol, 1 mM ATP or CTP, 5 nM DNA, room temperature; EMSA: 20 mM Tris-HCl pH 8.0, 50 mM NaCl, 11 mM imidazole, 5 mM MgCl2, 10% glycerol, +/- 2 mM CTP, 37 C, gel at 4 C; conditions: protein: recombinant;recombinant; tags: His (Ni-NTA purified); label: 5' Cy5 in EMSA; FP label Cy3 or Cy5 not specified per DNA; blunt

B1: HpParBN10, N-terminal peptide of HpParB (residues 1-10) (peptide)
peptide: MAKNKVLGRG
modifications: not fully specified (N-terminus); also: labeled with 5-FAM-Ahx fluorophore, site not given here
notes: residues 1-10 of Helicobacter pylori Spo0J/ParB (HP1138); The methods describe only the 5-FAM-Ahx-labelled peptide; also called HpSpo0JN10; source: synthetic peptide, bought: MDBio, inc
- Kd [1]: 5300 ± 1100 nM

B2: nsDNA 24-bp (dsDNA)
DNA 1: TCCTATGAATTGCTATGGCAAGCG
DNA 2: CGCTTGCCATAGCAATTCATAGGA
- binding result (Ct-HpParB): no binding

B3: Cy3-parS 24-bp (dsDNA)
DNA 1: AGGGTGTTCCACGTGAAACAGGGA
DNA 2: TCCCTGTTTCACGTGGAACACCCT
- Kd (HpParB (HpSpo0J) [2]): 63.4 ± 5.6 nM
- Kd (HpParB (HpSpo0J) [3]; label: 5' Cy3 (FP dye assignment inferred from EMSA)): 232 ± 42 nM

B4: Cy5/Cy3-labeled nsDNA 24-bp (dsDNA)
DNA 1: TCCTATGAATTGCTATGGCAAGCG
DNA 2: CGCTTGCCATAGCAATTCATAGGA
- Kd (HpParAD41A): 149 ± 18.1 nM
- Kd (HpParA (HpSoj)): 117 ± 15.2 nM
- binding result [4]: binds
- binding result [5]: binds
- Kd (HpParB (HpSpo0J) [3]; label: 5' Cy5 in EMSA, FP label Cy3 or Cy5 not specified per DNA): 145 ± 28.8 nM
